From publication PMC4029776, “Transiently Produced Hypochlorite Is Responsible for the Irreversible Inhibition of Chlorite Dismutase” (Biochemistry, 2014)

B1: NdCld (chlorite dismutase from "Candidatus Nitrospira defluvii") (Nitrospira defluvii) (protein)
chain: ADREKLLTESGVYGTFATFQMDHDWWDLPGESRVISVAEVKGLVEQWSGKILVESYLLRGLSDHADLMFRVHARTLSDTQQFLSAFMGTRLGRHLTSGGLLHGVSKKPTYVAGFPESMKTELQVNGESGSRPYAIVIPIKKDAEWWALDQEARTALMQEHTQAALPYLKTVKRKLYHSTGLDDVDFITYFETERLEDFHNLVRALQQVKEFRHNRRFGHPTLLGTMSPLDEILEKFAQ

Columns and labels:
[1] = test system: Arg183; assay: kinetics; conditions: ferric heme enzyme, chlorite turnover (inferred from context); cited from earlier work
[2] = substrate: [O-][Cl+]O; assay: Clark-type O2 electrode, initial rates, Michaelis-Menten; type: biochemical, Nitrospira defluvii; conditions: pH 7.0, 50 mM phosphate, 30 °C, 50 nM enzyme, NaClO2 10-1000 μM

Molecule | pKa [1] | Km [2] | kcat [2]
Chlorite dismutase (DaCld) (Dechloromonas aromatica) | ∼pH 6.5 |  | 
B1 |  | 138 ± 20 µM | 83 ± 4 s^–1
